The supplement of paper PMC11246515
± gives the standard deviation of the averaged measurements.

Assay: total protein half-life in vivo (active degradation + dilution); higher = more stable protein
[1] = E. coli NCM3722 delta-lon, growth: N-lim chemostat, doubling time 6 h
[2] = E. coli NCM3722 delta-smpB, growth: N-lim chemostat, doubling time 6 h
[3] = wild type E. coli NCM3722, growth: C-lim chemostat, doubling time 3 h
[4] = wild type E. coli NCM3722, growth: C-lim chemostat, doubling time 12 h
[5] = wild type E. coli NCM3722, growth: N-lim chemostat, doubling time 6 h
[6] = wild type E. coli NCM3722, growth: P-lim chemostat, doubling time 6 h
[7] = wild type E. coli NCM3722, growth: P-lim chemostat, doubling time 12 h
[8] = E. coli NCM3722 delta-clpP, growth: N-lim chemostat, doubling time 6 h
[9] = E. coli NCM3722 delta-hslV, growth: N-lim chemostat, doubling time 6 h
[10] = wild type E. coli NCM3722, growth: C-lim chemostat, doubling time 6 h
[11] = wild type E. coli NCM3722, growth: N-lim chemostat, doubling time 12 h
[12] = E. coli NCM3722 delta-clpP delta-lon delta-hslV, growth: N-lim chemostat, doubling time 6 h

Row | Sequence | total protein half-life in vivo [1] | total protein half-life in vivo [2] | total protein half-life in vivo [3] | total protein half-life in vivo [4] | total protein half-life in vivo [5] | total protein half-life in vivo [6] | total protein half-life in vivo [7] | total protein half-life in vivo [8] | total protein half-life in vivo [9] | total protein half-life in vivo [10] | total protein half-life in vivo [11] | total protein half-life in vivo [12]
1 | MERFLENAMYASRWLLAPVYFGLSLALVALALKFFQEIIHVLPNIFSMAESDLILVLLSLVDMTLVGGLLVMVMFSGYENFVSQLDISENKEKLNWLGKMDATSLKNKVAASIVAISSIHLLRVFMDAKNVPDNKLMWYVIIHLTFVLSAFVMGYLDRLTRHNH | 6.103 ± 0.048 h | 5.64 ± 0.26 h | 2.92 ± 0.05 h | 11.8 ± 1.8 h | 4.99 ± 0.67 h | 5.88 h | 10.6 h | – | – | – | – | –
2 | MERLLIVNADDFGLSKGQNYGIIEACRNGIVTSTTALVNGQAIDHAVQLSRDEPSLAIGMHFVLTMGKPLTAMPGLTRDGVLGKWIWQLAEEDALPLEEITQELVSQYLRFIELFGRKPTHLDSHHHVHMFPQIFPIVARFAAEQGIALRADRQMAFDLPVNLRTTQGFSSAFYGEEISESLFLQVLDDAGHRGDRSLEVMCHPAFIDNTIRQSAYCFPRLTELDVLTSASLKGAIAQRGYRLGSYRDV | 3.55 ± 0.42 h | 2.945 ± 0.014 h | 2.86 ± 0.21 h | 7.9 ± 0.51 h | 3.27 ± 0.43 h | 5.12 ± 0.14 h | 10.1 ± 0.26 h | 3.19 ± 0.45 h | 3.38 h | 4.51 ± 0.39 h | 4.74 ± 0.26 h | –
3 | MERYESLFAQLKERKEGAFVPFVTLGDPGIEQSLKIIDTLIEAGADALELGIPFSDPLADGPTIQNATLRAFAAGVTPAQCFEMLALIRQKHPTIPIGLLMYANLVFNKGIDEFYAQCEKVGVDSVLVADVPVEESAPFRQAALRHNVAPIFICPPNADDDLLRQIASYGRGYTYLLSRAGVTGAENRAALPLNHLVAKLKEYNAAPPLQGFGISAPDQVKAAIDAGAAGAISGSAIVKIIEQHINEPEKMLAALKVFVQPMKAATRS [P0A877] | 4.07 ± 0.48 h | 3.69 ± 0.17 h | 3.084 ± 0.021 h | 8.972 ± 0.077 h | 3.61 ± 0.21 h | 5.39 ± 0.16 h | 12 ± 0.5 h | 3.89 ± 0.84 h | 3.44 ± 0.066 h | 5.81 ± 0.23 h | 5.06 ± 0.87 h | 3.93 ± 0.57 h
4 | MESKRLDNAALAAGISPNYINAHGKPQSISAETKRRLLDAMHQRTATKVAVTPVPNVMVYTSGKKMPMVVEGSGEYSWLLTTEEGTQYKGHVTGGKAFNLPTKLPEGYHTLTLTQDDQRAHCRVIVAPKRCYEPQALLNKQKLWGACVQLYTLRSEKNWGIGDFGDLKAMLVDVAKRGGSFIGLNPIHALYPANPESASPYSPSSRRWLNVIYIDVNAVEDFHLSEEAQAWWQLPTTQQTLQQARDADWVDYSTVTALKMTALRMAWKGFAQRDDEQMAAFRQFVAEQGDSLFWQAAFDALHAQQVKEDEMRWGWPAWPEMYQNVDSPEVRQFCEEHRDDVDFYLWLQWLAYSQFAACWEISQGYEMPIGLYRDLAVGVAEGGAETWCDRELYCLKASVGAPPDILGPLGQNWGLPPMDPHIITARAYEPFIELLRANMQNCGALRIDHVMSMLRLWWIPYGETADQGAYVHYPVDDLLSILALESKRHRCMVIGEDLGTVPVEIVGKLRSSGVYSYKVLYFENDHEKTFRAPKAYPEQSMAVAATHDLPTLRGYWECGDLTLGKTLGLYPDEVVLRGLYQDRELAKQGLLDALHKYGCLPKRAGHKASLMSMTPTLNRGLQRYIADSNSALLGLQPEDWLDMAEPVNIPGTSYQYKNWRRKLSATLESMFADDGVNKLLKDLDRRRRAAAKKK | 4.12 ± 1.7 h | 5.57 ± 0.12 h | – | 13.5 ± 1.4 h | 6.03 ± 0.061 h | 5.25 ± 0.14 h | 10.3 ± 0.19 h | 6.29 ± 0.23 h | – | 6.27 ± 0.46 h | 12.1 ± 0.58 h | 6.24 ± 0.17 h
5 | MESKVVVPAQGKKITLQNGKLNVPENPIIPYIEGDGIGVDVTPAMLKVVDAAVEKAYKGERKISWMEIYTGEKSTQVYGQDVWLPAETLDLIREYRVAIKGPLTTPVGGGIRSLNVALRQELDLYICLRPVRYYQGTPSPVKHPELTDMVIFRENSEDIYAGIEWKADSADAEKVIKFLREEMGVKKIRFPEHCGIGIKPCSEEGTKRLVRAAIEYAIANDRDSVTLVHKGNIMKFTEGAFKDWGYQLAREEFGGELIDGGPWLKVKNPNTGKEIVIKDVIADAFLQQILLRPAEYDVIACMNLNGDYISDALAAQVGGIGIAPGANIGDECALFEATHGTAPKYAGQDKVNPGSIILSAEMMLRHMGWTEAADLIVKGMEGAINAKTVTYDFERLMDGAKLLKCSEFGDAIIENM | 4.61 ± 0.056 h | 4.1 ± 0.047 h | 3.16 ± 0.068 h | 10.1 ± 0.64 h | 4.08 ± 0.24 h | 5.73 ± 0.1 h | 12.3 ± 0.41 h | 4.36 ± 0.53 h | 4.05 ± 0.061 h | 5.584 ± 0.048 h | 6.47 ± 0.1 h | 4.7 ± 0.38 h
6 | MESLLTLPLAGEARVRILQITDTHLFAQKHEALLGVNTWESYQAVLEAIRPHQHEFDLIVATGDLAQDQSSAAYQHFAEGIASFRAPCVWLPGNHDFQPAMYSALQDAGISPAKRVFIGEQWQILLLDSQVFGVPHGELSEFQLEWLERKLADAPERHTLLLLHHHPLPAGCSWLDQHSLRNAGELDTVLAKFPHVKYLLCGHIHQELDLDWNGRRLLATPSTCVQFKPHCSNFTLDTIAPGWRTLELHADGTLTTEVHRLADTRFQPDTASEGY [P0AEW4] | 4.98 ± 0.096 h | 4.34 ± 0.65 h | 2.948 ± 0.017 h | 11.6 ± 1.3 h | 4.56 ± 0.88 h | 4.435 ± 0.035 h | 8.69 ± 0.43 h | 4.65 ± 0.26 h | 4.6 ± 0.28 h | 5.4 ± 0.74 h | 8.5 ± 0.45 h | 5.15 ± 0.77 h
7 | MESLMPWDARDTMSLRTEFVLFASQDGANIRSLCRRFGISPATGYKWLQRWAQEGAAGLQDRPRIPHHSPNRSSDDITALLRMAHDRHERWGARKIKRWLEDQGHTMPAFSTVHNLMARHGLLPGASPGIPATGRFEHDAPNRLWQMDFKGHFPFGGGRCHPLTLLDDHSRFSLCLAHCTDERRETVQQQLVSVFERYGLPDRMTMDNGSPWGDTTGTWTALELWLMRLGIRVGHSRPYHPQTQGKLERFHRSLKAEVLQGKWFADSGELQRAFDHWRTVYNLERPHEALDMAVPGSRYQPSARQYSGNTTPPEYDEGVMVRKVDISGKLSVKGVSLSAGKAFRGERVGLKEMQEDGSYEVWWYSTKVGVIDLKKKSITMGKGC | – | – | – | 5.67 h | – | – | – | 3.06 h | – | 2.18 h | 4.45 h | 3.5 ± 0.88 h
8 | MESLSEGTTAGYQQIHDGIIHLVDSARTETVRSVNALMTATYQEIGRRIVEFEQGGEARAAYGAQLIKRLSKDLCLRYKRGFSAKNLRQMRLFYLFFQHVEIHQTMSGELTPLGIPQTPSAEFPSAKIWQTLSAKSFPLPRSTYVRLLSVKNADARSFYEKETLRCGWSVRQLERQIATQFYERTLLSHDKSAMLQQHAPAETHILPQQAIRDPFVLEFLELKDEYSESDFEEALINHLMDFMLELGDDFAFVGRQRRLRIDDNWFRVDLLFFHRRLRCLLIVDLKVGKFSYSDAGQMNMYLNYAKEHWTLPDENPPIGLVLCAEKGAGEAHYALAGLPNTVLASEYKMQLPDEKRLADELVRTQAVLEEGYRRR | – | – | – | – | – | – | – | – | 5.34 h | 5.89 h | – | –
